Measurements: PMC11910092, “Modulating the complement system through epitope-specific inhibition by complement C3 inhibitors” (The Journal of Biological Chemistry, 2025)

Experiments:
Assay in all cases: ELISA; plate coated with 2 ug/ml C3, C3b or recombinant C345C domain overnight at 4 °C; MI3 dilution series in PBST, 37 °C, 1 h; detected with HRP anti-His antibody (HRP anti-VHH antibody for the C345C domain)
Conditions in all cases: both partners purified
[1] = biological target: T1, recombinant C345C domain of C3 and C3b (Homo sapiens)
T1 construct: C345C domain of complement C3; also called C345C domain (recombinant expression); source: HEK293-F, transfected (pCDNA3.1(+)), secreted, purified (Ni-NTA agarose, anion exchange GigaCap Q-650M)
T1 chain: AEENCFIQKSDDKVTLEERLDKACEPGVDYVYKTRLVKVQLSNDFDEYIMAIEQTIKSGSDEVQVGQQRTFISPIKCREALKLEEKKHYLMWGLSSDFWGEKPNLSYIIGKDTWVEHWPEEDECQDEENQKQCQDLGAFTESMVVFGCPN

complement C3 = biological target: T2, complement C3 (Homo sapiens (plasma-derived), UniProt P01024)
T2 construct: Bought protein; it works with normal human serum and anti-human detection antibodies; source: bought: Complement Technology (cat#A113)
T2 sequence (P01024 23-667): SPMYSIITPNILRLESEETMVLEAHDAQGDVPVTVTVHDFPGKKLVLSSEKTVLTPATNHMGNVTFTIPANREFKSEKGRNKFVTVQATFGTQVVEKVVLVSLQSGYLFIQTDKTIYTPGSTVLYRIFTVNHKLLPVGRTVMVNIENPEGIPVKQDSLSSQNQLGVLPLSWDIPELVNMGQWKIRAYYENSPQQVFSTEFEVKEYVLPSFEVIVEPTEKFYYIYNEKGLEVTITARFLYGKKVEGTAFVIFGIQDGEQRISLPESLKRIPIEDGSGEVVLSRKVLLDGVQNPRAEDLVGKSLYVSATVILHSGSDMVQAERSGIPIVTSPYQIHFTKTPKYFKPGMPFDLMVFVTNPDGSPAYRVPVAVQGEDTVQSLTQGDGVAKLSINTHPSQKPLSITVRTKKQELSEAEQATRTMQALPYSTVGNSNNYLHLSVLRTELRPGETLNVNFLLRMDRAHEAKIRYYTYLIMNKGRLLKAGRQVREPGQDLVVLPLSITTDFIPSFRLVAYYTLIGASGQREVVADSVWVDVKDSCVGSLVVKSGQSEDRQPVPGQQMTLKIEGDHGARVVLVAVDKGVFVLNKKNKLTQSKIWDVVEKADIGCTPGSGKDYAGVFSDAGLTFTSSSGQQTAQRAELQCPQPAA

complement C3b = biological target: T3, complement C3b (Homo sapiens (plasma-derived), UniProt P01024)
T3 construct: Bought protein; source: bought: Complement Technology (cat#A114)
T3 sequence (P01024 23-667): as above

- EC50 [1]: 0.19 nM
- EC50 (complement C3): 0.17 nM
- EC50 (complement C3b): 0.14 nM
B1: MI3 (nanobody) (VHH)
VHH: DVQLQESGGGLVQPGGSLRLSCVASGSTFSTYHMGWYRQAPGKQRELIAGITSGGRISYVDSVKGRFNISRDNAKNTVYLQMNTLKPEDTAVYYCNMLGEFAGRPPWGQGTQVTVSS
notes: proprietary nanobody; Provided by Quaerite Biopharm Research; source: HEK293-F, transfected (pCDNA3.1(+)), secreted, purified (Ni-NTA agarose, ion exchange GigaCap Q-650S); not shown: 6xHis (after a GGGGS linker), C-terminal, kept
